Results: the supplement of paper PMC5998384

Tests used:
HeLa Kyoto [1] = test: solubility change mitosis vs G1/S (difference of NP-40 vs SDS log2 ratios) (log2 ratio difference); higher = more soluble in mitosis
HeLa Kyoto [2] = test: solubility in G1/S (NP-40 vs SDS abundance) (log2 ratio); higher = more soluble; details: cell cycle stage: G1/S
HeLa Kyoto [3] = test: melting temperature (median over replicates), in situ; higher = more thermally stable
HeLa Kyoto [4] = test: thermal stability score vs G1/S (z-score of summed log2 fold changes over temperatures); higher = more thermally stable than in G1/S
[5] = cell cycle stage: early G1 (4.5 h after nocodazole release)
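For melting temperature (median over replicates), in situ in this document: HeLa Kyoto cells synchronized by double thymidine or nocodazole block, proteins quantified by TMT10plex mass spectrometry, three independent biological replicates.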
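For solubility change mitosis vs G1/S (difference of NP-40 vs SDS log2 ratios) in this document: synchronized HeLa Kyoto cells (double thymidine block for G1/S, nocodazole release for mitosis), protein amounts in NP-40 versus SDS lysates quantified by mass spectrometry, three biological replicates.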
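For solubility in G1/S (NP-40 vs SDS abundance) in this document: HeLa Kyoto cells arrested at G1/S by double thymidine block, proteins quantified by TMT10plex mass spectrometry in mild NP-40 versus SDS extracts, three biological replicates.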
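For thermal stability score vs G1/S (z-score of summed log2 fold changes over temperatures) in this document: synchronized HeLa Kyoto cells, proteins quantified by TMT10plex mass spectrometry, three biological replicates, mitosis taken 0.5 h after nocodazole release, G1/S directly after double thymidine block.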

Row | Substance | solubility change mitosis (log2) (HeLa Kyoto [1]) | solubility in G1/S (log2) (HeLa Kyoto [2]) | melting temperature (HeLa Kyoto [3]; cell cycle stage: G1/S) [°C] | melting temperature (HeLa Kyoto [3]; cell cycle stage: mitosis) [°C] | thermal stability score (HeLa Kyoto [4]; [5]) | thermal stability score (HeLa Kyoto [4]; cell cycle stage: mitosis)
1 | MLTNLRIFAMSHQTIPSVYINNICCYKIRASLKRLKPHVPLGRNCSSLPGLIGNDIKSLHSIINPPIAKIRNIGIMAHIDAGKTTTTERILYYSGYTRSLGDVDDGDTVTDFMAQERERGITIQSAAVTFDWKGYRVNLIDTPGHVDFTLEVERCLRVLDGAVAVFDASAGVEAQTLTVWRQADKHNIPRICFLNKMDKTGASFKYAVESIREKLKAKPLLLQLPIGEAKTFKGVVDVVMKEKLLWNCNSNDGKDFERKPLLEMNDPELLKETTEARNALIEQVADLDDEFADLVLEEFSENFDLLPAEKLQTAIHRVTLAQTAVPVLCGSALKNKGIQPLLDAVTMYLPSPEERNYEFLQWYKDDLCALAFKVLHDKQRGPLVFMRIYSGTIKPQLAIHNINGNCTERISRLLLPFADQHVEIPSLTAGNIALTVGLKHTATGDTIVSSKSSALAAARRAEREGEKKHRQNNEAERLLLAGVEIPEPVFFCTIEPPSLSKQPDLEHALKCLQREDPSLKVRLDPDSGQTVLCGMGELHIEIIHDRIKREYGLETYLGPLQVAYRETILNSVRATDTLDRTLGDKRHLVTVEVEARPIETSSVMPVIEFEYAESINEGLLKVSQEAIENGIHSACLQGPLLGSPIQDVAITLHSLTIHPGTSTTMISACVSRCVQKALKKADKQVLEPLMNLEVTVARDYLSPVLADLAQRRGNIQEIQTRQDNKVVIGFVPLAEIMGYSTVLRTLTSGSATFALELSTYQAMNPQDQNTLLNRRSGLT [GFM2] | -0.0596 | -0.0849 | 49.2 | 49.3 | 1.87 | 1.26
2 | MATEGDVELELETETSGPERPPEKPRKHDSGAADLERVTDYAEEKEIQSSNLETAMSVIGDRRSREQKAKQEREKELAKVTIKKEDLELIMTEMEISRAAAERSLREHMGNVVEALIALTN [HYPK] | 0.208 | 0.395 | 54.4 | 54 | -6.39 | -8.21
3 | MAAVVLAATRLLRGSGSWGCSRLRFGPPAYRRFSSGGAYPNIPLSSPLPGVPKPVFATVDGQEKFETKVTTLDNGLRVASQNKFGQFCTVGILINSGSRYEAKYLSGIAHFLEKLAFSSTARFDSKDEILLTLEKHGGICDCQTSRDTTMYAVSADSKGLDTVVALLADVVLQPRLTDEEVEMTRMAVQFELEDLNLRPDPEPLLTEMIHEAAYRENTVGLHRFCPTENVAKINREVLHSYLRNYYTPDRMVLAGVGVEHEHLVDCARKYLLGVQPAWGSAEAVDIDRSVAQYTGGIAKLERDMSNVSLGPTPIPELTHIMVGLESCSFLEEDFIPFAVLNMMMGGGGSFSAGGPGKGMFSRLYLNVLNRHHWMYNATSYHHSYEDTGLLCIHASADPRQVREMVEIITKEFILMGGTVDTVELERAKTQLTSMLMMNLESRPVIFEDVGRQVLATRSRKLPHELCTLIRNVKPEDVKRVASKMLRGKPAVAALGDLTDLPTYEHIQTALSSKDGRLPRTYRLFR [PMPCA] | -0.174 | -0.0271 | 52.2 | 51.8 | 0.057 | -1.17
4 | MAAQKINEGLEHLAKAEKYLKTGFLKWKPDYDSAASEYGKAAVAFKNAKQFEQAKDACLREAVAHENNRALFHAAKAYEQAGMMLKEMQKLPEAVQLIEKASMMYLENGTPDTAAMALERAGKLIENVDPEKAVQLYQQTANVFENEERLRQAVELLGKASRLLVRGRRFDEAALSIQKEKNIYKEIENYPTCYKKTIAQVLVHLHRNDYVAAERCVRESYSIPGFNGSEDCAALEQLLEGYDQQDQDQVSDVCNSPLFKYMDNDYAKLGLSLVVPGGGIKKKSPATPQAKPDGVTATAADEEEDEYSGGLC [NAPG] | 0.178 | 0.528 | 49.6 | 49.9 | -0.512 | 0.117
5 | MEANWTAFLFQAHEASHHQQQAAQNSLLPLLSSAVEPPDQKPLLPIPITQKPQGAPETLKDAIGIKKEKPKTSFVCTYCSKAFRDSYHLRRHESCHTGIKLVSRPKKTPTTVVPLISTIAGDSSRTSLVSTIAGILSTVTTSSSGTNPSSSASTTAMPVTQSVKKPSKPVKKNHACEMCGKAFRDVYHLNRHKLSHSDEKPFECPICNQRFKRKDRMTYHVRSHEGGITKPYTCSVCGKGFSRPDHLSCHVKHVHSTERPFKCQTCTAAFATKDRLRTHMVRHEGKVSCNICGKLLSAAYITSHLKTHGQSQSINCNTCKQGISKTCMSEETSNQKQQQQQQQQQQQQQQQQQQHVTSWPGKQVETLRLWEEAVKARKKEAANLCQTSTAATTPVTLTTPFSITSSVSSGTMSNPVTVAAAMSMRSPVNVSSAVNITSPMNIGHPVTITSPLSMTSPLTLTTPVNLPTPVTAPVNIAHPVTITSPMNLPTPMTLAAPLNIAMRPVESMPFLPQALPTSPPW [VEZF1] | 0.0342 | 0.142 | 55.4 | – | 0.665 | 0.5
6 | MEKIPVSAFLLLVALSYTLARDTTVKPGAKKDTKDSRPKLPQTLSRGWGDQLIWTQTYEEALYKSKTSNKPLMIIHHLDECPHSQALKKVFAENKEIQKLAEQFVLLNLVYETTDKHLSPDGQYVPRIMFVDPSLTVRADITGRYSNRLYAYEPADTALLLDNMKKALKLLKTEL [AGR2] | 0.3 | 0.49 | 53.8 | 53.4 | 0.575 | -1.24
7 | RAB1B | -0.0321 | 0.0965 | 57.8 | 58 | -0.394 | -2.04
8 | MAGQQFQYDDSGNTFFYFLTSFVGLIVIPATYYLWPRDQNAEQIRLKNIRKVYGRCMWYRLRLLKPQPNIIPTVKKIVLLAGWALFLFLAYKVSKTDREYQEYNPYEVLNLDPGATVAEIKKQYRLLSLKYHPDKGGDEVMFMRIAKAYAALTDEESRKNWEEFGNPDGPQATSFGIALPAWIVDQKNSILVLLVYGLAFMVILPVVVGSWWYRSIRYSGDQILIRTTQIYTYFVYKTRNMDMKRLIMVLAGASEFDPQYNKDATSRPTDNILIPQLIREIGSINLKKNEPPLTCPYSLKARVLLLSHLARMKIPETLEEDQQFMLKKCPALLQEMVNVICQLIVMARNREEREFRAPTLASLENCMKLSQMAVQGLQQFKSPLLQLPHIEEDNLRRVSNHKKYKIKTIQDLVSLKESDRHTLLHFLEDEKYEEVMAVLGSFPYVTMDIKSQVLDDEDSNNITVGSLVTVLVKLTRQTMAEVFEKEQSICAAEEQPAEDGQGETNKNRTKGGWQQKSKGPKKTAKSKKKKPLKKKPTPVLLPQSKQQKQKQANGVVGNEAAVKEDEEEVSDKGSDSEEEETNRDSQSEKDDGSDRDSDREQDEKQNKDDEAEWQELQQSIQRKERALLETKSKITHPVYSLYFPEEKQEWWWLYIADRKEQTLISMPYHVCTLKDTEEVELKFPAPGKPGNYQYTVFLRSDSYMGLDQIKPLKLEVHEAKPVPENHPQWDTAIEGDEDQEDSEGFEDSFEEEEEEEEDDD [SEC63] | -0.1 | -0.14 | 53 | 53.1 | -0.144 | -1.37
9 | MIRAAPPPLFLLLLLLLLLVSWASRGEAAPDQDEIQRLPGLAKQPSFRQYSGYLKGSGSKHLHYWFVESQKDPENSPVVLWLNGGPGCSSLDGLLTEHGPFLVQPDGVTLEYNPYSWNLIANVLYLESPAGVGFSYSDDKFYATNDTEVAQSNFEALQDFFRLFPEYKNNKLFLTGESYAGIYIPTLAVLVMQDPSMNLQGLAVGNGLSSYEQNDNSLVYFAYYHGLLGNRLWSSLQTHCCSQNKCNFYDNKDLECVTNLQEVARIVGNSGLNIYNLYAPCAGGVPSHFRYEKDTVVVQDLGNIFTRLPLKRMWHQALLRSGDKVRMDPPCTNTTAASTYLNNPYVRKALNIPEQLPQWDMCNFLVNLQYRRLYRSMNSQYLKLLSSQKYQILLYNGDVDMACNFMGDEWFVDSLNQKMEVQRRPWLVKYGDSGEQIAGFVKEFSHIAFLTIKGAGHMVPTDKPLAAFTMFSRFLNKQPY [CTSA] | -0.0924 | 0.138 | 54.5 | 57 | 0.798 | 2.87
10 | MSSSLGKEKDSKEKDPKVPSAKEREKEAKASGGFGKESKEKEPKTKGKDAKDGKKDSSAAQPGVAFSVDNTIKRPNPAPGTRKKSSNAEVIKELNKCREENSMRLDLSKRSIHILPSSIKELTQLTELYLYSNKLQSLPAEVGCLVNLMTLALSENSLTSLPDSLDNLKKLRMLDLRHNKLREIPSVVYRLDSLTTLYLRFNRITTVEKDIKNLSKLSMLSIRENKIKQLPAEIGELCNLITLDVAHNQLEHLPKEIGNCTQITNLDLQHNELLDLPDTIGNLSSLSRLGLRYNRLSAIPRSLAKCSALEELNLENNNISTLPESLLSSLVKLNSLTLARNCFQLYPVGGPSQFSTIYSLNMEHNRINKIPFGIFSRAKVLSKLNMKDNQLTSLPLDFGTWTSMVELNLATNQLTKIPEDVSGLVSLEVLILSNNLLKKLPHGLGNLRKLRELDLEENKLESLPNEIAYLKDLQKLVLTNNQLTTLPRGIGHLTNLTHLGLGENLLTHLPEEIGTLENLEELYLNDNPNLHSLPFELALCSKLSIMSIENCPLSHLPPQIVAGGPSFIIQFLKMQGPYRAMV [SHOC2] | -0.0856 | 0.421 | 52.2 | 52.4 | -0.46 | -1.35
11 | UBR1 | -0.26 | -0.252 | 48.6 | 50.3 | 0.878 | 1.16
12 | MAEGSGEVVAVSATGAANGLNNGAGGTSATTCNPLSRKLHKILETRLDNDKEMLEALKALSTFFVENSLRTRRNLRGDIERKSLAINEEFVSIFKEVKEELESISEDVQAMSNCCQDMTSRLQAAKEQTQDLIVKTTKLQSESQKLEIRAQVADAFLSKFQLTSDEMSLLRGTREGPITEDFFKALGRVKQIHNDVKVLLRTNQQTAGLEIMEQMALLQETAYERLYRWAQSECRTLTQESCDVSPVLTQAMEALQDRPVLYKYTLDEFGTARRSTVVRGFIDALTRGGPGGTPRPIEMHSHDPLRYVGDMLAWLHQATASEKEHLEALLKHVTTQGVEENIQEVVGHITEGVCRPLKVRIEQVIVAEPGAVLLYKISNLLKFYHHTISGIVGNSATALLTTIEEMHLLSKKIFFNSLSLHASKLMDKVELPPPDLGPSSALNQTLMLLREVLASHDSSVVPLDARQADFVQVLSCVLDPLLQMCTVSASNLGTADMATFMVNSLYMMKTTLALFEFTDRRLEMLQFQIEAHLDTLINEQASYVLTRVGLSYIYNTVQQHKPEQGSLANMPNLDSVTLKAAMVQFDRYLSAPDNLLIPQLNFLLSATVKEQIVKQSTELVCRAYGEVYAAVMNPINEYKDPENILHRSPQQVQTLLS [COG6] | -0.0596 | 0.289 | 48.6 | 49.3 | 0.0299 | 0.655
13 | MVQLRPRASRAPASAEAMVDEGQLASEEEEAEHGLLLGQPSSGAAAEPLEEDEEGDDEFDDEAPEELTFASAQAEAREEERRVRETVRRDKTLLKEKRKRREELFIEQKKRKLLPDTILEKLTTASQTNIKKSPGKVKEVNLQKKNEDCEKGNDSKKVKVQKVQSVSQNKSYLAVRLKDQDLRDSRQQAAQAFIHNSLYGPGTNRTTVNKFLSLANKRLPVKRAAVQFLNNAWGIQKKQNAKRFKRRWMVRKMKTKK [NOL7] | 0.763 | -1.02 | 56.9 | 54 | -0.722 | -4.23
14 | MPKKFQGENTKSAAARARRAEAKAAADAKKQKELEDAYWKDDDKHVMRKEQRKEEKEKRRLDQLERKKETQRLLEEEDSKLKGGKAPRVATSSKVTRAQIEDTLRRDHQLREAPDTAEKAKSHLEVPLEENVNRRVLEEGSVEARTIEDAIAVLSVAEEAADRHPERRMRAAFTAFEEAQLPRLKQENPNMRLSQLKQLLKKEWLRSPDNPMNQRAVPFNAPK [CCDC124] | 0.537 | 0.214 | 57.1 | 53.7 | 0.653 | -5.08
